Data reported in patent publication US20220241413A1, “COMBINATION THERAPIES USING CD-38 ANTIBODIES” (Takeda Pharmaceutical Company Limited, priority 2019, published 2022).

Tests used:
[1] = tested on: peripheral blood NK cells; experiment: Phase 1 study in healthy subjects (AB79-101): NK cell levels; format: in vivo, human; details: all subjects receiving a single 0.06 mg/kg IV dose
Method: (§1) In a phase 1 study in healthy subjects (Study AB79-101), AB79 reduced the levels of peripheral blood and natural killer (NK) cells >90% from baseline in all subjects receiving a single 0.06 mg/kg IV dose of AB79, with a maximum observed concentration (Cmax) of 0.1 μg/mL. (U.S. Pat. No. 8,362,211; U.S. International Patent Application Serial Nos. PCT/US2019/013547 and PCT/US2019/024431). […] Potent reduction of plasmablasts was observed across cohorts of patients in the RRMM trial (Study AB79-1501). […] Consequently, AB79 may be more efficient at eliminating cells expressing high levels of CD38, which could manifest as higher activity on tumor cells (e.g., improved and deeper response rates across a population of patients with myeloma).
(§2) AB79 IV reduced the levels of peripheral blood NK cells >90% from baseline levels in all subjects receiving a single 0.06 mg/kg IV dose, with a Cmax of 0.1 μg/mL. […] As a potent and convenient second-generation anti-CD38 mAb, AB79 SC warranted therapeutic development for the treatment of multiple myeloma (MM).

[2] = tested on: newly diagnosed multiple myeloma (NDMM); experiment: AB79-1002 phase 1b study, AB79 with LenDex or VRd in NDMM: disease response; format: in vivo, human; details: total population including both backbone regimens, one patient pending
Text: This is a Phase 1b, open-label, multicenter study to evaluate the safety, efficacy, tolerability, and pharmacokinetics (PK) of AB79 when added to 1 of 2 standard backbone regimens (lenalidomide plus dexamethasone [LenDex] or bortezomib [Velcade] plus lenalidomide and dexamethasone [VRd]) in adult patients with newly diagnosed multiple myeloma (NDMM) for whom stem cell transplantation (SCT) is not planned as initial therapy. The dose and schedule for the backbone regimens (LenDex and VRd) are given in accordance with product labeling or standard medical practice. Treatment cycles are 28 days until disease progression (PD) or unacceptable toxicity occurs. Treatment may be discontinued for other reasons listed below. AB79 is supplied by the sponsor. Bortezomib, dexamethasone, and lenalidomide are standard-of-care agents that are supplied from commercial sources. […]
Efficacy assessment of tumor response and disease progression are conducted in accordance with IMWG criteria. […] Bone marrow examinations, skeletal surveys, computed tomography (CT) or magnetic resonance imaging ([…]) to evaluate lytic and/or extramedullary plasmacytomas, and serum calcium corrected for albumin are evaluated as necessary based on patient's baseline disease status. […]

[3] = AB79-1501 study, AB79 plus PomDex combination cohort in RRMM: safety; format: in vivo
Text: This is a multicenter, dose-escalation, open-label, single-arm, Phase 1/2a study designed to determine the safety, tolerability, efficacy, PK, and immunogenicity of AB79 monotherapy in patients with RRMM, and to provide a preliminary assessment of its activity against MM.
The phase 1 portion of the study evaluates administration of single agent AB79 for dose-limiting toxicity (DLT) to determine the MTD or the RP2D for further assessment in phase 2a. A recommended dose below the MTD is identified based on the review of safety, PK, PD (e.g., CD38 occupancy), and clinical data from the phase 1 portion of the study. The safety and tolerability of AB79 is assessed by recording and analyzing TEAEs, dose modifications, treatment discontinuations, vital signs, physical examinations, serum chemistry and hematology, urinalysis, ECGs, and concomitant medications. In phase 1, approximately 6 doses of AB79 are evaluated in ascending cohorts of 3 to 6 patients per cohort. Cohorts may be expanded by enrolling additional patients to further inform selection of the RP2D before enrolling in the Phase 2a portion of the study. In the phase 2a portion of this study, Grade 4 or higher nonhematologic toxicity is monitored starting from the first 10 enrolled patients and then every 10 patients thereafter. Additionally, a cohort of patients receive AB79 combined with the backbone regimen of pomalidomide and dexamethasone (PomDex) in patients with RRMM who have received at least 2 prior therapies and are refractory to the last therapy before study entry.
The study provides a Confirmation Cohort and a Combination Cohort. Each Cohort is administered a dose of 300 mg AB79 subcutaneously weekly for 8 weeks during Cycles 1 and 2 (8 doses), every other week during Cycles 3 to 6 for 16 weeks (8 doses), and then once every 4 weeks until PD in subsequent cycles. Safety and available efficacy, PK, and pharmacodynamics are reviewed at least after 6 patients in each subgroup have received 1 cycle of therapy, then on an ongoing basis. […] The Combination Cohort also receives pomalidomide and dexamethasone (PomDex), and given according to product labeling (Pomalyst USPI). […] In the Combination Cohort, up to 6 patients are initially enrolled and safety in Cycle 1 reviewed. […] If 2 of 6 patients develop DLTs, an additional cohort of 6 patients is tested at a de-escalated dose; an intermediate or more conservative dose schedule may also be implemented as a means to provide an overall lower dose. A lower dose of pomalidomide is also considered based on available safety data. […] If 2 of 6 patients develop DLTs at the lower dose, this cohort is stopped for further evaluation.

[4] = tested on: plasmablasts in peripheral blood; experiment: Phase 1 study in healthy subjects (AB79-101): plasmablast levels; format: in vivo, human; details: SC
Method: as §1, §2

[5] = AB79 plus PomDex, RRMM, 5 patients treated

AB79: anti-CD38 monoclonal IgG1 antibody; heavy chain SEQ ID NO:11, light chain SEQ ID NO:12
reduction of levels of peripheral blood NK cells from baseline [1]: > 90%
preliminary objective response rate (ORR) [2]: 100%
number of DLTs (neutropenia) ([3]; AB79 plus PomDex cohort): 1 DLT
drug-related SAEs or AEs leading to study drug discontinuation, or on-study deaths ([3]; AB79 plus PomDex combination): No
systemic reactions ([3]; AB79 plus PomDex combination): no systemic reactions
TEAE regardless of causality: cough [3, 5]: 2 patients
TEAE regardless of causality: neutropenia [3, 5]: 2 patients
reduction of levels of circulating plasmablasts in peripheral blood [4]: dose-dependent manner
